In patent publication US20200247903A1:
Blank lines part the entries; values can stand above or below the molecule they belong to.

Columns and labels:
[1] = target: Mouse CD24 (Heat Stable Antigen, Ly-52, Nectadrin) on mouse erythrocytes (mouse) (UniProt P24807); assay: flow cytometry histogram on C57BL/6 mouse erythrocytes, PE-anti rat Ig; antibody quantity of this sample not given; RBC alone 2.80 [continued) I]
[2] = target: Mouse CD24 (Heat Stable Antigen, Ly-52, Nectadrin) on mouse erythrocytes (mouse) (UniProt P24807); assay: flow cytometry on mouse RBCs (++++ = MFI > 500)
[3] = target: Band 3 antigen on mouse erythrocytes (mouse) (UniProt P04919); assay: flow cytometry on mouse RBCs (++++ = MFI > 500)
[4] = target: TER-119 antigen (Ly76, 52 kD glycophorin A-associated protein) on mouse erythrocytes (mouse); assay: flow cytometry histogram on C57BL/6 mouse erythrocytes, PE-anti rat Ig; antibody quantity of this sample not given; RBC alone 2.80 [continued) I]
[5] = target: TER-119 antigen (Ly76, 52 kD glycophorin A-associated protein) on mouse erythrocytes (mouse); assay: cell-based or functional assay
[6] = target: TER-119 antigen (Ly76, 52 kD glycophorin A-associated protein) on mouse erythrocytes (mouse); assay: flow cytometry saturation binding on RBCs
[7] = target: TER-119 antigen (Ly76, 52 kD glycophorin A-associated protein) on mouse erythrocytes (mouse); assay: flow cytometry on mouse RBCs (++++ = MFI > 500)
[8] = target: TER-119 antigen (Ly76, 52 kD glycophorin A-associated protein) on mouse erythrocytes (mouse); assay: flow cytometry on mouse RBCs (+++ = MFI > 250)

Sequence of UniProt P24807 (P24807 27-53): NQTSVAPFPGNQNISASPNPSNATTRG
Sequence of UniProt P04919 (P04919 whole entry): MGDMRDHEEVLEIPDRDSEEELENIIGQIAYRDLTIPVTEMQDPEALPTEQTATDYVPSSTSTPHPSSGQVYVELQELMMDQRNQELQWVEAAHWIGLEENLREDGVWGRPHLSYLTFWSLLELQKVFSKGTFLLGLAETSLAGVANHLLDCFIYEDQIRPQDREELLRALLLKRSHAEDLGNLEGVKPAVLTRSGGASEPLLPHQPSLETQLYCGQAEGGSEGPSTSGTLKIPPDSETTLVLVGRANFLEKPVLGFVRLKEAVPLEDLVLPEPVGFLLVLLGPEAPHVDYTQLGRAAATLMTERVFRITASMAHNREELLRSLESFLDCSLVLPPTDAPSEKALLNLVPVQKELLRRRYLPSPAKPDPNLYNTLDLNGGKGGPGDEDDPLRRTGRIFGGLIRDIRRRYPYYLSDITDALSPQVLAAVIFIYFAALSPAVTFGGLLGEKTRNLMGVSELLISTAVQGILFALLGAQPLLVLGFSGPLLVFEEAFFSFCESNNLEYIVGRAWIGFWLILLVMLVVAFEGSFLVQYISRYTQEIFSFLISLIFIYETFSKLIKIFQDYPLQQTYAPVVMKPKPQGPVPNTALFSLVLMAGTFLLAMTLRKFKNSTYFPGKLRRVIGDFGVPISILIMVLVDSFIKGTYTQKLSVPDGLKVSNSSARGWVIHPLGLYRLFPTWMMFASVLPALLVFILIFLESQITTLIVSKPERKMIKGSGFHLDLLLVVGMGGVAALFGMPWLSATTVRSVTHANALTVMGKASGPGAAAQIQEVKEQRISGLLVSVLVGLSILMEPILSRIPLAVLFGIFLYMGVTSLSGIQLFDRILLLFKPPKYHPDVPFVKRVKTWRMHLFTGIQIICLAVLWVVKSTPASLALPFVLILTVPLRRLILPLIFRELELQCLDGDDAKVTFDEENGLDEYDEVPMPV

- Median : YLW-HLog [1]: 113
- MFI [2]: > 500 mfi
Molecule: M1/69 (rat IgG2b antibody to mouse CD24)

- MFI [3]: > 500 mfi
Molecule: 34-3C (anti-Band 3 mAb, mouse IgG2a) (antibody)

- Median : YLW-HLog [1]: 2.76
- Median : YLW-HLog [4]: 2.76
Molecule: Isotype control (antibody)

- Median : YLW-HLog [4]: 112
- phagocytic index of TER-119 opsonized RBCs by RAW264.7 macrophages (lowest effective concentration) [5]: 1.25 µg/mL
- phagocytic index of TER-119 opsonized RBCs by RAW264.7 macrophages (plateau) [5]: 5 µg/mL
- Kd [6]: 30 nM
- MFI [7]: > 500 mfi
B1: TER-119 antibody (rat IgG2b monoclonal antibody to the mouse TER-119 antigen) (antibody, V domains shown)
VH: EVKLQESGGGLVQPGGSLKLSCVASGFTFRDHWMNWVRQAPGKTMEWIGDIRPDGSDTNYAPSVRNRFTISRDNARSILYLQMSNMRSDYTATYYCVRDSPTRAGLMDAWGQGTSVTVSS
VL: DIQMTQSPSVLSASVGDRVTLNCKASQNINKYLNWYQQKLGEAPKVLIYNTNNLQTGIPSRFSGSGSGTDFTLTISSLQPEDFATYFCFQHYTWPTFGGGTKLEIKR

- MFI [8]: 250 to 500 mfi
- Median : YLW-HLog [4]: 126
B2: Deglycosylated TER-119 (antibody, V domains shown)
VH: B1 VH
VL: B1 VL
modifications: Fc glycan removed (a variant without the Fc glycan)
